Consider 6 molecules from patent publication US20220204643A1 (published 2022).

Assay [1] has as its target T1, ganglioside induced differentiation associated protein 1, transcript variant 2 (human, UniProt Q8TB36 69-358).
T1 construct: on protein array; also called GDAP1
T1 sequence: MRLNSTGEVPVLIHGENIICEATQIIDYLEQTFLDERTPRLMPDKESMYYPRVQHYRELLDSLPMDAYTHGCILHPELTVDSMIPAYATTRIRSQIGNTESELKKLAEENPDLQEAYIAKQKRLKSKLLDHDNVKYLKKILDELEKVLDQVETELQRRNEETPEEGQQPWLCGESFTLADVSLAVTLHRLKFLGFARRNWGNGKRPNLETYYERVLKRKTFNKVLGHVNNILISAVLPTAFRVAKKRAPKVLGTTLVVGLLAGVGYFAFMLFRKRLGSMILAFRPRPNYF
Briefly: protein array.

Assay [2] concerns the target T2, SATB homeobox 2, transcript variant 2 (human, UniProt Q9UPW6 1-733).
T2 construct: on protein array; also called SATB2
T2 sequence: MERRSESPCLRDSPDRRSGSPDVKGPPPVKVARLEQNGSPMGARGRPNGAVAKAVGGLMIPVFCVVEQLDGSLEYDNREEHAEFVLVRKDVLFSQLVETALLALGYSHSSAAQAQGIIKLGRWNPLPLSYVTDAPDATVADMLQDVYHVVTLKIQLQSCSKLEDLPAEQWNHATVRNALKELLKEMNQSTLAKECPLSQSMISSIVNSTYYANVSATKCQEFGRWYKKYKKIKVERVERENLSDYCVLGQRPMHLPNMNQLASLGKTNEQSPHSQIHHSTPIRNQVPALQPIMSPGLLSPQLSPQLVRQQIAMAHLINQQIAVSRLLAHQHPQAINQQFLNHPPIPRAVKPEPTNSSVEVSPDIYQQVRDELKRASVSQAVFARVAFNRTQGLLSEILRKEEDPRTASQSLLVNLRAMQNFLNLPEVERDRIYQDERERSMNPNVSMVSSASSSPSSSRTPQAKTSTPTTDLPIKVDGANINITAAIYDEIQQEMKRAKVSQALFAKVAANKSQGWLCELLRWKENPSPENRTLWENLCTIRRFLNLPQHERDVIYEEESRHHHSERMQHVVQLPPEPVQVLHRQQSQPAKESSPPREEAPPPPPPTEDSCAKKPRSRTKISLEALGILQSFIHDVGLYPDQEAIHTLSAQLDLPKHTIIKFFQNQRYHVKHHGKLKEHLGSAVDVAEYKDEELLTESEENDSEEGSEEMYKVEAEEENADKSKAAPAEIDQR
Briefly: protein array.

The target of a further assay is T3, zinc finger protein 8 (human, UniProt P17098 1-575).
T3 construct: on protein array; also called ZNF8
T3 sequence (P17098 whole entry): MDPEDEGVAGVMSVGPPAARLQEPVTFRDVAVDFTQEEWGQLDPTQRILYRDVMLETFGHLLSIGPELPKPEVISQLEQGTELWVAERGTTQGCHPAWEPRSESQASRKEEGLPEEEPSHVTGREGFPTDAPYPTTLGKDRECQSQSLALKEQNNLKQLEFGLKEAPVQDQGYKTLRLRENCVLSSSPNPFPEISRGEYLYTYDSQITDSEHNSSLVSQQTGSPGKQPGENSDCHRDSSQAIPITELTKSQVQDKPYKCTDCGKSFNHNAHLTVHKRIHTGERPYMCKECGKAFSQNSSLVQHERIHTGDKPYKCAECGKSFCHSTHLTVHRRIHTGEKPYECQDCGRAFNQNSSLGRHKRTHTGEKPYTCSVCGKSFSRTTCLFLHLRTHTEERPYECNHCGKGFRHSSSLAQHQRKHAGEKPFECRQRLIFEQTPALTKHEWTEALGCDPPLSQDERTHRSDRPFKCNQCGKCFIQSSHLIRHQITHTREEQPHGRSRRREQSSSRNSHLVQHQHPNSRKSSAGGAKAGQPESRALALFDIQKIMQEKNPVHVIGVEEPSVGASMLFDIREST
Briefly: protein array.

The target of assay [3] is T4, zinc finger protein 326, transcript variant 1 (human, UniProt Q5BKZ1 1-582).
T4 construct: HuProt array protein, full-length recombinant from yeast; also called ZNF326
T4 sequence: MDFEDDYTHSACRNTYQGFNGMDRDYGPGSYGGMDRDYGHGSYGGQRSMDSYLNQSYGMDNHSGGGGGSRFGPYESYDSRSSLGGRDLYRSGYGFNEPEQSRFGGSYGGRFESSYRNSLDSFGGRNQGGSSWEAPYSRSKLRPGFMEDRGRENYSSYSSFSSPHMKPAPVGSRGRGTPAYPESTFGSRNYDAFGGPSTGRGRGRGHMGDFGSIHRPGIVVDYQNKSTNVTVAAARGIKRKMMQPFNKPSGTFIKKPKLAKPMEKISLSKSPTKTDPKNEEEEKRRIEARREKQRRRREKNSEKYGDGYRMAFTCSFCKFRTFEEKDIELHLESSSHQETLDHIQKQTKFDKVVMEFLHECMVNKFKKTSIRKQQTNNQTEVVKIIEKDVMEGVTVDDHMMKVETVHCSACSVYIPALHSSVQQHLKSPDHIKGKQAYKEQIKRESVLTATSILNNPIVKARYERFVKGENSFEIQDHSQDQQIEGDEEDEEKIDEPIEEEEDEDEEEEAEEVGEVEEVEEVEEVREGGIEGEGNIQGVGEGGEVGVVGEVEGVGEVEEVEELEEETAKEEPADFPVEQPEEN

The target in assay [4] is T5, PNMA family member 5, transcript variant 2 (human, UniProt Q96PV4 1-448).
T5 construct: HuProt array protein, full-length recombinant from yeast; also called PNMA5
T5 sequence (Q96PV4 other isoform, or with tags, fused parts or gaps mutant limits assumed): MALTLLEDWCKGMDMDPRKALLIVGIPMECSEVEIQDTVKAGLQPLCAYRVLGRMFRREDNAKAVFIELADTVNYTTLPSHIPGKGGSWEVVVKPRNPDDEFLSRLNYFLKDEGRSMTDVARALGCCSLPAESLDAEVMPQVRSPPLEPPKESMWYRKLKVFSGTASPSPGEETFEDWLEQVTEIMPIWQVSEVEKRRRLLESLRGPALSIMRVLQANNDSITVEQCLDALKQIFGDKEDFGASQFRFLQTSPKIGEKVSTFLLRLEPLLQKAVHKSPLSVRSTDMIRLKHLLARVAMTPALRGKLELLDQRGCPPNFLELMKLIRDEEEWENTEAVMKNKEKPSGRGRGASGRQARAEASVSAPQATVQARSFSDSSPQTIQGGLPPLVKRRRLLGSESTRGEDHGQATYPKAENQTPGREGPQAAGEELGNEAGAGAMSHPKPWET

The target of assay [5] is T6, phospholipase C delta 1, transcript variant 2 (human, UniProt P51178 1-756).
T6 construct: HuProt array protein, full-length recombinant from yeast; also called PLCD1
T6 sequence: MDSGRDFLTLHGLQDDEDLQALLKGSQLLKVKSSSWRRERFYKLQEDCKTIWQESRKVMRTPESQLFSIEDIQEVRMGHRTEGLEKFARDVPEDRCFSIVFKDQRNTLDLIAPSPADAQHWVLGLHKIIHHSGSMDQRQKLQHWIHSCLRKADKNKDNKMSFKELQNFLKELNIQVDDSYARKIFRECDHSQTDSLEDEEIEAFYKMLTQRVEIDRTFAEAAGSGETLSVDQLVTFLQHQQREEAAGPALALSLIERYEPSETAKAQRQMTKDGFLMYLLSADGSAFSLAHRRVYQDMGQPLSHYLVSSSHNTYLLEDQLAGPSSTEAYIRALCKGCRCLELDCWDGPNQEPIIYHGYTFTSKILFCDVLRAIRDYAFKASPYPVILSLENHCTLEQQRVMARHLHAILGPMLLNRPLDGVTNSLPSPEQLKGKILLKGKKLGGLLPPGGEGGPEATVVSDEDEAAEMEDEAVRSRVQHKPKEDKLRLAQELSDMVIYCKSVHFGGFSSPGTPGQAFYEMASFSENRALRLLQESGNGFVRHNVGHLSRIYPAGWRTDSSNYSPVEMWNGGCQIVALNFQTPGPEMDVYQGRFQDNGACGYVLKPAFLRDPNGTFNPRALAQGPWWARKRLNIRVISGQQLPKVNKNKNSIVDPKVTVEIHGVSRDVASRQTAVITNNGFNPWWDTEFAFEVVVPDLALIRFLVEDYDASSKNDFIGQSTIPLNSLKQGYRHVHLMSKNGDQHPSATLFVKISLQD

In a further assay the target is T7, LN608403.1_frag (human).
T7 construct: HuProt array protein; labelled _frag
T7 chain: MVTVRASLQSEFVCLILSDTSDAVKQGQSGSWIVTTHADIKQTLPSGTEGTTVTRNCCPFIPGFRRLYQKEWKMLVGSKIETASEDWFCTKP

The target in assay [6] is T8, JPX transcript, XIST activator (human).
T8 construct: HuProt array protein; labelled _frag
T8 chain: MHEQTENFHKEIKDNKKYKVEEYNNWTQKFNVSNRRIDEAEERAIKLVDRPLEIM

Assay [7] concerns the target T9, TruB pseudouridine synthase family member 1 (human, UniProt Q8WWH5 2-349).
T9 construct: HuProt array protein, full-length recombinant from yeast; also called TRUB1
T9 sequence: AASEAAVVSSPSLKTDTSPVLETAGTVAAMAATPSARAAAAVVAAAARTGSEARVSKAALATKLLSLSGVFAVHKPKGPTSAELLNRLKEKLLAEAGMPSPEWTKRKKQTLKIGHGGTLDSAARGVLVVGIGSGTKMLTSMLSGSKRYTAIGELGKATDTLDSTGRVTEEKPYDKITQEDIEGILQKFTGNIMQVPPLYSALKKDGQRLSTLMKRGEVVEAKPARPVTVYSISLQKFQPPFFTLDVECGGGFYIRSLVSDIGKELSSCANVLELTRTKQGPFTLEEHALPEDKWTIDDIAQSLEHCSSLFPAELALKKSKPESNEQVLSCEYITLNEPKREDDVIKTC

The target in assay [8] is T10, phospholipid scramblase 4, transcript variant X4 (human, UniProt Q9NRQ2 1-329).
T10 construct: HuProt array protein, full-length recombinant from yeast; also called PLSCR4
T10 chain: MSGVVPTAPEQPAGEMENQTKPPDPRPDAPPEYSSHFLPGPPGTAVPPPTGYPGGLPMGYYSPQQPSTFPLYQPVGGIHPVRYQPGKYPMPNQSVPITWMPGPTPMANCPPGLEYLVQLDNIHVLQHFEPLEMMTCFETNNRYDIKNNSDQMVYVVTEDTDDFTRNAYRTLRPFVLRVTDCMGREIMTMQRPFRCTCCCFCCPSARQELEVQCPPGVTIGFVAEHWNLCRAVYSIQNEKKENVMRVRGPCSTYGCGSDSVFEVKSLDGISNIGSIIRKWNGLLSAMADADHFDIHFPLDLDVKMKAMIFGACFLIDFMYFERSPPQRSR

Assay [9] deals with T11, nudE neurodevelopment protein 1, transcript variant 1 (human, UniProt Q9NXR1 1-335).
T11 construct: HuProt array protein, full-length recombinant from yeast; also called NDE1
T11 sequence: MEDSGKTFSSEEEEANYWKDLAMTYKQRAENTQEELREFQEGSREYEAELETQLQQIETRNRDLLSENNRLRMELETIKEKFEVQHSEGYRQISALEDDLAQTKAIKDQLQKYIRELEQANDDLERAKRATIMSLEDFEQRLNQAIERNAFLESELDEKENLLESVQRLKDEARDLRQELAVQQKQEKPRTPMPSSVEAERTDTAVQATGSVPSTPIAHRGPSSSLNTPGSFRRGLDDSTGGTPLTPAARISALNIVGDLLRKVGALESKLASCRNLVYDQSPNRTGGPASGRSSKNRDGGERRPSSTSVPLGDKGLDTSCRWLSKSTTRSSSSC

The target in assay [10] is T12, nucleosome assembly protein 1 like 1, transcript variant 1 (human, UniProt P55209 2-388).
T12 construct: HuProt array protein, full-length recombinant from yeast; also called NAP1L1
T12 sequence: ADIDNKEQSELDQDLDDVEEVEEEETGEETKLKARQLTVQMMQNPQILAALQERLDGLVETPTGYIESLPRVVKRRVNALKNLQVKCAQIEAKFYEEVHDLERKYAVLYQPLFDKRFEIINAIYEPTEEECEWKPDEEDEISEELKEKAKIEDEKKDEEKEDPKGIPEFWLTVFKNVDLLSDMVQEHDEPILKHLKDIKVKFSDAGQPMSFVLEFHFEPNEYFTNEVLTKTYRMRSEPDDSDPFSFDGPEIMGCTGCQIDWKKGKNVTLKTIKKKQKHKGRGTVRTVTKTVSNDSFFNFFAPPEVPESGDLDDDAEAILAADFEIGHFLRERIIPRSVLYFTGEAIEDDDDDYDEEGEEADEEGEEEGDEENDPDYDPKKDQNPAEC

B1: TBRE1017 (antibody, V domains shown)
VH: QVQLVQSGAEVKKPGASVKVSCKASGYNFRDYYMHWVRQAPGQGLEWMGWINPNSGGTISAQNFQGRVTMTRDTSISTAYMEVNSLRSDDTAVYYCAVGMVTDGFEIWGQGTLVTVSS
VL: PYELTQPPSVSVSPGQTARITCSGDALPNENAFWYQQKPGQAPVLVIYEDIKRPSGIPERFSGSSSGTTVTLTISGVQAEDEADYYCQSVDITSTWVFGGGTKLTVLG
notes: VH/VL only
Regarding B1, the binding result (in assay [1]; in assay [2]; with zinc finger protein 8) was “binds” throughout.

B2: TBRE1039 (antibody, V domains shown)
VH: PVQLVQSGAEVKKPGSSVKVSCKASGGTFSSYAISWVRQAPGQGLEWMGGIIPIFGTANYAQKFQGRVTITADESTSTAYMELSSLRSEDTAVYYCARENWNSAGTTEWFDPWGQGTLVTVSS
VL: PYVLTQPPSVSVAPGKTARITCGGNNIGSKSVHWYQQKPGQAPVLVIYYDSDRPSGIPERFSGSNSGNTATLTISRVEAGDEADYYCQVWDSSSDHYVVFGGGTKLTVLG
notes: detected with anti-human IgG Fc
B2: the binding result in assay [3], in [4] and in assay [5] was “binds” throughout.

B3: TBRE1045 (antibody, V domains shown)
VH: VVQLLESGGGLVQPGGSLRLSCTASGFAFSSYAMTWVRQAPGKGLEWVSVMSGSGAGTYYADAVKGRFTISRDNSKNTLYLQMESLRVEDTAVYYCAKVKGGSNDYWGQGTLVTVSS
VL: PYVLTQPPSVSVAPGQTARITCGGNNIGSKSVHWYQQKPGQAPVMVVYADRERPSGIPERLSGSNFGNTATLTISRVEAGDEADYYCQVWDSNNDHREVFGGGTKLTVLG
notes: as for B2
Regarding B3, the binding result (with LN608403.1_frag; in assay [6]) was “binds” each time.

B4: TCER1003 (antibody, V domains shown)
VH: QITLKESGPTLVKPTQTLTLTCTFSGFSLTTTDVGVGWIRQPPGKALEWLTIIYWDDDERYSPSLKSRLTITKDTSKNQVVLSMTNMDPVDTATYYCARVYSTKWDFDYWGQGTLVTVSS
VL: VSSELTQDPAVSVALGQTVRITCQGDSLRRYYVSWYRQKPGEAPVVVIYGKNNRPSWIPDRLSGSSSGNTASLTITGAQAEDEADYYCCSRDSSGNPWVFGGGTKLTVLG
notes: as for B2
Turning to B4, the binding result in assay [7] and in assay [8] was “binds” throughout.

B5: TCER1002 (antibody, V domains shown)
VH: QVQLQESGPGLVKPSETLSLSCTVSGASMNNYYWSWIRQSAGKGLEWIGRIYSSGDTDYNPSLKTRVTMSIDTSKNQFSLNLDSVTAADTATYYCARSFYDTLFYFENWGQGTLVTVSS
VL: DIQMTQSPSTLSASVGDRVTITCRASQSISVWLAWYQQKPGKAPKLLIYKASTLEAGVPSRFSGSGSGTEFSLTISGLQPDDFGTYFCQHYDSYPWTFGQGTKVEMK
notes: as for B2
As to B5, in assay [9], the binding result is “binds”.

B6: TCER1001 (antibody, V domains shown)
VH: EVQLVESGGGLVQPGRSLRLSCAASGFTFDDYAMHWVRQAPGKGLEWVSGISWNSGSIGYADSVKGRFTISRDNAKNSLYLQMNSLRAEDTALYYCAKDLLGFRDQRNYYGMDVWGQGTTVTVSS
VL: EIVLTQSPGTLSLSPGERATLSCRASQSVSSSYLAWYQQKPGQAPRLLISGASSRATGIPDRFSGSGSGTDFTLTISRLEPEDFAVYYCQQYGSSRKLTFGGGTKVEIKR
notes: as for B2
Turning to B6, in assay [10], the binding result was “binds”.
